Patent publication US20080293634A1 (WASHINGTON STATE UNIVERSITY RESEARCH FOUNDATION, published 2008)
Non-standard residues stand in square brackets, D forms with d. No end group written: not given here. Nle = CCCC[C@H](N)C(=O)O

Tests used:
[1] = biological target: T1, c-Met receptor on mouse liver plasma membranes (mouse, UniProt P16056 25-1379); test: competition with ^125I-HGF at various concentrations of COMPOUND 2 (mouse liver membranes)
T1 construct: whole, on cells; Membrane preparation from mouse liver
T1 sequence (P16056 25-1379): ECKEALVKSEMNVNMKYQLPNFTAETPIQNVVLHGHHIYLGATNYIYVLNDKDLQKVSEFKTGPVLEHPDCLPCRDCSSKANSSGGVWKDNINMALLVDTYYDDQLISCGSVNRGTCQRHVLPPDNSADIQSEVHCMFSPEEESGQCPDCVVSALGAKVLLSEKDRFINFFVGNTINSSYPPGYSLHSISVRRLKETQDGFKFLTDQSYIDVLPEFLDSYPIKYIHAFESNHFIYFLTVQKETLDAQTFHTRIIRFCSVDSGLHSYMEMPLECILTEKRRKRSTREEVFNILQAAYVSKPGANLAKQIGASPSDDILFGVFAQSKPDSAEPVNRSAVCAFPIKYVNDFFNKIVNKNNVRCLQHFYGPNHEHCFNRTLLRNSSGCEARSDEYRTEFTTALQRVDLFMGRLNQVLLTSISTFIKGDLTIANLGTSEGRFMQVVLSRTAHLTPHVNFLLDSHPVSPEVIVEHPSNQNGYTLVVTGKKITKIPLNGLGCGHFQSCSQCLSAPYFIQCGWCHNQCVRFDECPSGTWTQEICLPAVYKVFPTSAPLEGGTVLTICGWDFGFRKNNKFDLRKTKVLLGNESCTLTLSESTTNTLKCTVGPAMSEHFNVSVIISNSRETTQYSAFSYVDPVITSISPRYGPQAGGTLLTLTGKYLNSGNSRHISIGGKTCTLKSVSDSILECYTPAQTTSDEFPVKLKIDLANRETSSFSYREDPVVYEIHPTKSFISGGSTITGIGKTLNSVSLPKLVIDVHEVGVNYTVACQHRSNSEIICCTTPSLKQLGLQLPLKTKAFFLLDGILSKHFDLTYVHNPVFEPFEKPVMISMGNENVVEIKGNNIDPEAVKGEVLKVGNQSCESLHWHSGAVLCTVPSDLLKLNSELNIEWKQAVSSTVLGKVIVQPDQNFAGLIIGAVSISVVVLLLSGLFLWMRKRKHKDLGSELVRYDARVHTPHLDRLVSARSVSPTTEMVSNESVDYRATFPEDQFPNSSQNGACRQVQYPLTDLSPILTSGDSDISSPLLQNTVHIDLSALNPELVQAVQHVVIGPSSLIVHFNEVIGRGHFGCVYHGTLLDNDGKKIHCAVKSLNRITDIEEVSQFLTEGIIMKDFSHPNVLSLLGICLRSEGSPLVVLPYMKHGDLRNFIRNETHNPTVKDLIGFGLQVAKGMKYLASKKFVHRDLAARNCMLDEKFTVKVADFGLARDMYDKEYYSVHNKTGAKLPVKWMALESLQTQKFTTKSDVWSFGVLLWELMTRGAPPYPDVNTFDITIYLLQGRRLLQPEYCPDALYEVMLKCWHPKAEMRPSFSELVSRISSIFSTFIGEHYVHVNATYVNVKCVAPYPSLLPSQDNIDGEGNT
Experimental: (§1) ¹²⁵I-HGF binding assay. Mouse liver was homogenized in hypotonic buffer fortified with 0.1% bovine serum albumin as described by Hanesworth et al. (1993). 600 μg of membrane protein was incubated with 50 pM ¹²⁵I-HGF with various concentrations of HGF or Norleual in a total volume of 100 μl phosphate-buffered saline (PBS) fortified with 0.1% BSA. Binding occurred for one hour on ice. Membranes were pelleted by centrifugation and washed twice with incubation buffer. Radioactivity was counted with a gamma counter (Isomedic 10/880, ICN, Cost Mesa, Calif., USA). Specific binding was calculated and normalized to control counts. Competition fits by Prism software (GraphicPad, San Diego, Calif.) were performed according to the manufacturer's instructions.
Briefly, COMPOUND 2 was iodinated with […] and bound and cross-linked to HEK cell membranes with or without 1 nM COMPOUND 2 or 1 nM hepatocyte growth factor. Following solubilization and separation of free label by molecular sieving, total radioactive counts were determined. The ability of the ligand COMPOUND 2 to compete with hepatocyte growth factor binding to the c-Met receptor was also tested using mouse liver plasma membranes and intact HEK293 cells. […] Membranes were pelleted and unbound label was removed by washing, and total radioactive counts were determined. […]

[2] = biological target: T2, c-Met receptor on human cells (HEK293 cells and membranes, HUVEC) (human, UniProt P08581 25-1390); test: unlabeled Norleual against ^125I-Norleual on HEK293 membranes; two-site competition fit, low-affinity site
T2 construct: Endogenous receptor of human embryonic kidney HEK293 cells, HEK293 membranes and HUVEC; also called hepatocyte growth factor receptor; HGF-R
T2 sequence (P08581 other isoform, or with tags, fused parts or gaps limits assumed): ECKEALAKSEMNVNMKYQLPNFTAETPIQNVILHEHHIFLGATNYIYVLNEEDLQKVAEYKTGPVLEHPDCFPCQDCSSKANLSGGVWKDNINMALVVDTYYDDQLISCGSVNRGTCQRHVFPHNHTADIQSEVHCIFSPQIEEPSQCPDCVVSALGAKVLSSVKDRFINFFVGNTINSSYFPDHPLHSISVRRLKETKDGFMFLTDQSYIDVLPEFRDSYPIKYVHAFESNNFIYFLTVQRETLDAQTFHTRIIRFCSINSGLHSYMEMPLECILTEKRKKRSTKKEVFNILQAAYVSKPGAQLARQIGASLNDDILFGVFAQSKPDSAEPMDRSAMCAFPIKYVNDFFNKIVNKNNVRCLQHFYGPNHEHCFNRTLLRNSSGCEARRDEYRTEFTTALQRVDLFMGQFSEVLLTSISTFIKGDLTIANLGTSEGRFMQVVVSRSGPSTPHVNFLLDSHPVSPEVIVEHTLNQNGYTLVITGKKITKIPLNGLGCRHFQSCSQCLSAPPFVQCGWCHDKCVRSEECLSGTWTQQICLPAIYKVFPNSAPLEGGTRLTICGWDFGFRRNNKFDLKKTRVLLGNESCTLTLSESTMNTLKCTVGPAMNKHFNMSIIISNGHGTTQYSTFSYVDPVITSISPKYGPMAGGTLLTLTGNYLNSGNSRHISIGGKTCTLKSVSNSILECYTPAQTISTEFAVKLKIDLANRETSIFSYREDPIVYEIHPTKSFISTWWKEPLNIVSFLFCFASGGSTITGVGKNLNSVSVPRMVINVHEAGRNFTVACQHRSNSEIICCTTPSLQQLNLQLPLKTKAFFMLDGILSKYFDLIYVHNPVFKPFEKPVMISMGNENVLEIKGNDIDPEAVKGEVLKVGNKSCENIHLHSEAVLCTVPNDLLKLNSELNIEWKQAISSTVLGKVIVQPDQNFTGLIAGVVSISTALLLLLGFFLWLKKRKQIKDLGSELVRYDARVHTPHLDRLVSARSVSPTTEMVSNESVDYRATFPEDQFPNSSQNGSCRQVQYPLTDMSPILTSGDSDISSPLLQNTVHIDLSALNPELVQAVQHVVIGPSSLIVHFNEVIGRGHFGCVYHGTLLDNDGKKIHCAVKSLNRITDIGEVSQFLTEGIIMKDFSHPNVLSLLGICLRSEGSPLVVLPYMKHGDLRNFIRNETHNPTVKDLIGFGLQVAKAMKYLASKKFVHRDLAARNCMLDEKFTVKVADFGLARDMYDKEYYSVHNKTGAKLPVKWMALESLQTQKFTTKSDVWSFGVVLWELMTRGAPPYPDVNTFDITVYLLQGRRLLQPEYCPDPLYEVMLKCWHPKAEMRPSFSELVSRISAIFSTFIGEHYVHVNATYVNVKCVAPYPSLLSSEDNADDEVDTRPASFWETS
Experimental: (§2) FIG. 3C: ¹²⁵I-Norleual was bound to HEK membranes in the presence or absence of 1.5 nM HGF (n=8) or 1 μM Norleual (n=6). Total binding is reported as percent control (n=10), (*p<0.001). Error bars indicate±SD. […] Error bars indicate SD and data points were performed in duplicate.
(§3) ¹²⁵I-Norleual binding assay. HEK293 cells were grown to confluency in DMEM fortified with 10% FBS. Media was aspirated and cells were washed twice with ice-cold PBS. Cells were lysed with hypotonic buffer and homogenized as described by Zhang et al. (1999, J. Pharmacol. Exp. Ther. 289: 1075-1083; 2003 J. Cell Biochem. 88: 408-417). 450 μg of membrane protein was incubated with 1.5 nM ¹²⁵I-Norleual with or without Norleual or HGF in a total volume of 250 μl PBS, 0.1% BSA. Tubes were spun and binding was carried out for 60 minutes at RT. Bound and free ligands were separated by vacuum filtration using (Brandel Cell Harvester, Schleicher & Schull, Keene, N.H., USA) 32 glass filters. Radioactivity retained by the filters was measured using a gamma counter. […] Data analysis was preformed using Prism software (GraphicPad) per the supplier's recommendations.

[3] = biological target: T2, c-Met receptor on human cells (HEK293 …); test: unlabeled Norleual against ^125I-Norleual on HEK293 membranes; two-site competition fit, high-affinity site
Experimental: as §2, §3

[4] = biological target: T1, c-Met receptor on mouse liver plasma …; test: competition with 50 pM ^125I-HGF for binding to mouse liver plasma membranes; mean ±SEM, n=3
Experimental: Mouse liver plasma membranes were incubated with […] ¹²⁵I-HGF and the indicated concentrations of HGF or Norleual. Results are presented as percent of specific ¹²⁵I-HGF binding and error bars indicate±standard error of mean (SEM). Competition experiments included quadruplicate data points and each experiment was repeated in triplicate.
as §1
Materials and methods were as described in Example 1. In separate tests of unlabeled competitors, both Norleual and HGF competed with ¹²⁵I-HGF for high affinity binding to mouse liver plasma membranes (FIGS. 2A, 2B). […]

B1: Norleual (Nle-Tyr-Leu-ψ-(CH2-NH2)-His-Pro-Phe) (peptide)
peptide: [Nle]YLHPF
modifications: not fully specified; printed as Nle-Tyr-Leu-ψ-(CH2-NH2)-His-Pro-Phe; also: reduced peptide bond ψ(CH2-NH) between Leu3 and His4
notes: Synthesized by Syngene and purified by reverse phase HPLC; Peptidomimetic hexapeptide; also called Compound 2; COMPOUND 2
- Kd [1]: ~0.003 nM
- IC50 [2]: 7.4 nM
- IC50 [3]: 0.048 nM
- IC50 [4]: 0.0031 nM
